# Assay results: patent US20180291083A1 (IMMATICS BIOTECHNOLOGIES, published 2018)
# Assays:
# HLA-B*07:02 = target: T1, HLA-B*07:02 (human); test: UV ligand exchange ELISA; exchange yield grade
# T1 construct: Peptide-receptive MHC class I monomer made by UV cleavage of a UV-sensitive ligand
# Description: (§1) Candidate peptides for T cell based therapies according to the present invention were further tested for their MHC binding capacity (affinity). The individual peptide-MHC complexes were produced by UV-ligand exchange, where a UV-sensitive peptide is cleaved upon UV-irradiation, and exchanged with the peptide of interest as analyzed. Only peptide candidates that can effectively bind and stabilize the peptide-receptive MHC molecules prevent dissociation of the MHC complexes. To determine the yield of the exchange reaction, an ELISA was performed based on the detection of the light chain (β2m) of stabilized MHC complexes. The assay was performed as generally described in Rodenko et al. (Rodenko et al., 2006).
# (§2) 96 well MAXISorp plates (NUNC) were coated over night with 2 ug/ml streptavidin in PBS at room temperature, washed 4× and blocked for 1 h at 37° C. in 2% BSA containing blocking buffer. Refolded HLA-A*02:01/MLA-001 monomers served as standards, covering the range of 15-500 ng/ml. Peptide-MHC monomers of the UV-exchange reaction were diluted 100-fold in blocking buffer. Samples were incubated for 1 h at 37° C., washed four times, incubated with 2 ug/ml HRP conjugated anti-β2m for 1 h at 37° C., washed again and detected with TMB solution that is stopped with […]. Absorption was measured at 450 nm. Candidate peptides that show a high exchange yield (preferably higher than 50%, most preferred higher than 75%) are generally preferred for a generation and production of antibodies or fragments thereof, and/or T cell receptors or fragments thereof, as they show sufficient avidity to the MHC molecules and prevent dissociation of the MHC complexes.
# HLA-A*03:01 = target: T2, HLA-A*03:01 (human); test: UV ligand exchange ELISA; exchange yield grade
# T2 construct: Peptide-receptive MHC class I monomer made by UV cleavage of a UV-sensitive ligand
# Description: as §1, §2
peptide exchange yield (HLA-B*07:02) [%],peptide exchange yield (HLA-A*03:01) [%],Binder
20 to 50,–,YPGSDRIML
50 to 75,–,SPRNLQPQRAAL
20 to 50,–,SPSLPSRTL
20 to 50,–,SPWLHAPSL
20 to 50,–,SPLSHHSQL
20 to 50,–,VPNLQTVSV
50 to 75,–,SPRSWIQVQI
50 to 75,–,SPSLPNITL
–,20 to 50,VILESIFLK
> 75,–,SPRITFPSL
50 to 75,–,SPRVYWLGL

# The remaining lines, values behind:
Binder,peptide exchange yield (HLA-B*07:02) [%],peptide exchange yield (HLA-A*03:01) [%]
APRPAGSYL,50 to 75,–
SPADHRGYASL,20 to 50,–
RTYGFVLTF,–,20 to 50
LPKVQSIQL,20 to 50,–
RPFADLLGTAF,50 to 75,–
RPSNKAPLL,50 to 75,–
SPKESENAL,20 to 50,–
MPLSTIREV,20 to 50,–
APSKTSLIM,20 to 50,–
QPRLFTMDL,50 to 75,–
QPSPARAPAEL,20 to 50,–
SPFSFHHVL,20 to 50,–
LPYDSKHQI,20 to 50,–
KPMKSVLVV,50 to 75,–
MPSSDTTVTF,50 to 75,–
APAPAEKTPV,50 to 75,–
SPLGSLARSSL,> 75,–
RIYDEILQSK,–,20 to 50
RPHIPISKL,20 to 50,–
